Laboratory results: patent publication US20140322307A1 (LIPOTEC S A, published 2014)

Molecular target: T1, Proteinase-Activated Receptor-2 (human, on human keratinocytes) (human, UniProt P55085 37-397)
T1 sequence (looked up): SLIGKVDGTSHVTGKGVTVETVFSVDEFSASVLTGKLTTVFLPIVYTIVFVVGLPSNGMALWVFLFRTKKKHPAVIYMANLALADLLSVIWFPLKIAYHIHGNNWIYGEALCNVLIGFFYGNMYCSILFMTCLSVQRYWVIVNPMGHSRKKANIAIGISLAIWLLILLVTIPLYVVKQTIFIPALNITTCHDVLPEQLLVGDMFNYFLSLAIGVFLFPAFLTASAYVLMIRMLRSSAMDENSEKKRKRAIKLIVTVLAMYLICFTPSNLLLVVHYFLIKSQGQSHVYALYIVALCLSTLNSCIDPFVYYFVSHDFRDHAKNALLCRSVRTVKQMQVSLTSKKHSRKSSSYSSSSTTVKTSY
Assay: cell-based or functional assay

Binder | Inhibition PAR-2 activity (calcium fluorescence, human keratinocytes, peptide at 1 mg/mL) [%] | PAR-2 activity (calcium fluorescence, human keratinocytes, peptide at 1 mg/mL) [%]
Ac-FMWFHS-NH2 [Ac-L-Phe-L-Met-L-Trp-L-Phe-L-His-L-Ser-NH2] | 72.2 | 27.8
Ac-SMWFHS-NH2 [Ac-L-Ser-L-Met-L-Trp-L-Phe-L-His-L-Ser-NH2] | 64.9 | 35.1
Ac-FFWFHS-NH2 [Ac-L-Phe-L-Phe-L-Trp-L-Phe-L-His-L-Ser-NH2] | 49.2 | 50.8
Ac-SFWFHS-NH2 [Ac-L-Ser-L-Phe-L-Trp-L-Phe-L-His-L-Ser-NH2] | 26.4 | 73.6
Ac-FFQDIS-NH2 [Ac-L-Phe-L-Phe-L-Gln-L-Asp-L-Ile-L-Ser-NH2] | 27 | 73
Ac-FMRDHS-NH2 [Ac-L-Phe-L-Met-L-Arg-L-Asp-L-His-L-Ser-NH2] | 66.9 | 33.1
Ac-FMWDIS-NH2 [Ac-L-Phe-L-Met-L-Trp-L-Asp-L-Ile-L-Ser-NH2] | 26.5 | 73.5
Ac-FFWDIS-NH2 [Ac-L-Phe-L-Phe-L-Trp-L-Asp-L-Ile-L-Ser-NH2] | 38.4 | 61.6
Ac-FMRFIS-NH2 [Ac-L-Phe-L-Met-L-Arg-L-Phe-L-Ile-L-Ser-NH2] | 35.1 | 64.9
Ac-SFRFIS-NH2 [Ac-L-Ser-L-Phe-L-Arg-L-Phe-L-Ile-L-Ser-NH2] | 16.2 | 83.8
Ac-FMQFIS-NH2 [Ac-L-Phe-L-Met-L-Gln-L-Phe-L-Ile-L-Ser-NH2] | 89.1 | 10.9
Ac-SMQFIS-NH2 [Ac-L-Ser-L-Met-L-Gln-L-Phe-L-Ile-L-Ser-NH2] | 52.6 | 47.4
Ac-FFQFIS-NH2 [Ac-L-Phe-L-Phe-L-Gln-L-Phe-L-Ile-L-Ser-NH2] | 59.3 | 40.7
Ac-SFQFIS-NH2 [Ac-L-Ser-L-Phe-L-Gln-L-Phe-L-Ile-L-Ser-NH2] | 39 | 61
Ac-FMWFIS-NH2 [Ac-L-Phe-L-Met-L-Trp-L-Phe-L-Ile-L-Ser-NH2] | 67.7 | 32.3
Ac-SMWFIS-NH2 [Ac-L-Ser-L-Met-L-Trp-L-Phe-L-Ile-L-Ser-NH2] | 67.8 | 32.2
Ac-FMQFHS-NH2 [Ac-L-Phe-L-Met-L-Gln-L-Phe-L-His-L-Ser-NH2] | 23 | 77
Ac-FFWFIS-NH2 [Ac-L-Phe-L-Phe-L-Trp-L-Phe-L-Ile-L-Ser-NH2] | 66.3 | 33.7
Ac-SFWFIS-NH2 [Ac-L-Ser-L-Phe-L-Trp-L-Phe-L-Ile-L-Ser-NH2] | 39.2 | 60.8
Ac-FFRDHV-NH2 [Ac-L-Phe-L-Phe-L-Arg-L-Asp-L-His-L-Val-NH2] | 60.3 | 39.7
Ac-FFWDHV-NH2 [Ac-L-Phe-L-Phe-L-Trp-L-Asp-L-His-L-Val-NH2] | 14.8 | 85.2
Ac-FMRFHV-NH2 [Ac-L-Phe-L-Met-L-Arg-L-Phe-L-His-L-Val-NH2] | 40 | 60

Binder | Inhibition PAR-2 activity (calcium fluorescence, human keratinocytes, peptide at 1 mg/mL) [%] | PAR-2 activity (calcium fluorescence, human keratinocytes, peptide at 1 mg/mL) [%]
Ac-FFRFHV-NH2 [Ac-L-Phe-L-Phe-L-Arg-L-Phe-L-His-L-Val-NH2] | 23.4 | 76.6
Ac-FMQFHV-NH2 [Ac-L-Phe-L-Met-L-Gln-L-Phe-L-His-L-Val-NH2] | 22.6 | 77.5
Ac-SMQFHV-NH2 [Ac-L-Ser-L-Met-L-Gln-L-Phe-L-His-L-Val-NH2] | 15.1 | 84.9
Ac-FFQFHV-NH2 [Ac-L-Phe-L-Phe-L-Gln-L-Phe-L-His-L-Val-NH2] | 19.9 | 80.1
Ac-FFQFHS-NH2 [Ac-L-Phe-L-Phe-L-Gln-L-Phe-L-His-L-Ser-NH2] | 37.4 | 62.6
Ac-SMWFHV-NH2 [Ac-L-Ser-L-Met-L-Trp-L-Phe-L-His-L-Val-NH2] | 13.5 | 86.5
Ac-SFWFHV-NH2 [Ac-L-Ser-L-Phe-L-Trp-L-Phe-L-His-L-Val-NH2] | 58.3 | 41.7
Ac-FFRDIV-NH2 [Ac-L-Phe-L-Phe-L-Arg-L-Asp-L-Ile-L-Val-NH2] | 39 | 61
Ac-FMQDIV-NH2 [Ac-L-Phe-L-Met-L-Gln-L-Asp-L-Ile-L-Val-NH2] | 9.7 | 90.3
Ac-FFQDIV-NH2 [Ac-L-Phe-L-Phe-L-Gln-L-Asp-L-Ile-L-Val-NH2] | 35.9 | 64.1
Ac-FMWDIV-NH2 [Ac-L-Phe-L-Met-L-Trp-L-Asp-L-Ile-L-Val-NH2] | 86.1 | 13.9
Ac-FMRFIV-NH2 [Ac-L-Phe-L-Met-L-Arg-L-Phe-L-Ile-L-Val-NH2] | 40.9 | 59.1
Ac-SMRFIV-NH2 [Ac-L-Ser-L-Met-L-Arg-L-Phe-L-Ile-L-Val-NH2] | 75.2 | 24.8
Ac-SFQFHS-NH2 [Ac-L-Ser-L-Phe-L-Gln-L-Phe-L-His-L-Ser-NH2] | 9.9 | 90.1
Ac-FFRFIV-NH2 [Ac-L-Phe-L-Phe-L-Arg-L-Phe-L-Ile-L-Val-NH2] | 53.7 | 46.3
Ac-SFRFIV-NH2 [Ac-L-Ser-L-Phe-L-Arg-L-Phe-L-Ile-L-Val-NH2] | 58.9 | 41.1
Ac-FMQFIV-NH2 [Ac-L-Phe-L-Met-L-Gln-L-Phe-L-Ile-L-Val-NH2] | 28.6 | 71.4
Ac-SMQFIV-NH2 [Ac-L-Ser-L-Met-L-Gln-L-Phe-L-Ile-L-Val-NH2] | 23.4 | 76.7
Ac-FFQFIV-NH2 [Ac-L-Phe-L-Phe-L-Gln-L-Phe-L-Ile-L-Val-NH2] | 24.1 | 75.9
Ac-SFQFIV-NH2 [Ac-L-Ser-L-Phe-L-Gln-L-Phe-L-Ile-L-Val-NH2] | 26.2 | 73.8
Ac-FMWFIV-NH2 [Ac-L-Phe-L-Met-L-Trp-L-Phe-L-Ile-L-Val-NH2] | 20.7 | 79.3
